To fix the notation:
B1: Twister Ribozyme (parent)
chain: AACACUGCCAAUGCCGGUCCCAAGCCCGGAUAAAAGUGGAGGGGGCGG

The data set covers variants of B1. Nature of the data set: self-cleavage, relative activity (ratio to wild type); higher = more cleavage; co-transcriptional.
Take G17U G48C: the self-cleavage was 0.467.

As to A40U G48C, the self-cleavage turned out to be 0.209.

Take U12C A23G: the self-cleavage was 0.486.

Take C8U: the self-cleavage came to 0.777.

As for G29C A35G, the self-cleavage turned out to be 0.544.

Take C19U C26U: the self-cleavage was 0.0803.

C19U A33C: the self-cleavage turned out to be 0.795.

As to A33U A40U, the self-cleavage was determined as 0.157.

Consider A32U G44C, for which the self-cleavage is 0.934.

For the variant C8G C9G, the self-cleavage turned out to be 0.107.

As to A4C G48C, the self-cleavage amounted to 0.31.

For the variant G24C G48A, the self-cleavage turned out to be 0.0988.

Regarding G24C G48U, the self-cleavage came out at 0.0846.

Regarding C14U C19G, the self-cleavage stood at 0.518.

For the variant G24U G43C, the self-cleavage is 0.076.

Take A23U G45A: the self-cleavage was determined as 0.391.

On to C14G G48U, for which the self-cleavage amounted to 0.128.

G36A G48A: the self-cleavage was found to be 0.639.

For the variant C5U C15A, the self-cleavage amounted to 0.385.

With A1U G24U, the self-cleavage was 0.0764.

For the variant C3U, the self-cleavage came out at 0.48.

In the case of C3G A11G, the self-cleavage worked out at 0.503.

Regarding G29C A30U, the self-cleavage was determined as 1.1.

A10C G42A: the self-cleavage was determined as 0.31.

On to C20G G47U, for which the self-cleavage amounted to 0.131.

On to C5A G41A, for which the self-cleavage is 0.107.

Regarding C8G G47C, the self-cleavage was 0.186.

As for G13A G16C, the self-cleavage was found to be 0.106.

Regarding A32U A35U, the self-cleavage was found to be 1.13.

As to A22G G48C, the self-cleavage is 0.318.

C9G G36C: the self-cleavage was 0.148.

In the case of U18C A33C, the self-cleavage turned out to be 0.386.

As to A4C A35G, the self-cleavage was found to be 0.451.

On to G13U A40U, for which the self-cleavage stood at 0.16.

Take C21U A35C: the self-cleavage was found to be 0.154.

In the case of G36U G48A, the self-cleavage came to 0.43.

For G28A U31G, the self-cleavage came to 0.916.

For the variant C3G A34G, the self-cleavage amounted to 0.235.

C3U A34G: the self-cleavage amounted to 0.153.

On to A2C G7C, for which the self-cleavage amounted to 0.0586.

Turning to G28C G42U, the self-cleavage came to 0.169.

For the variant G16A G48A, the self-cleavage was 0.979.

For A22C G38C, the self-cleavage came to 0.976.

G17A G43C: the self-cleavage worked out at 0.129.

As to G17A G43U, the self-cleavage worked out at 0.123.

Take C20U G39C: the self-cleavage came to 0.0926.

For A23C A35C, the self-cleavage worked out at 0.227.

As for G24C G39U, the self-cleavage is 0.0664.

Turning to G38A G47A, the self-cleavage worked out at 0.882.

As to G36C G47C, the self-cleavage stood at 0.171.

Take U12A C15U: the self-cleavage turned out to be 1.1.

As to C19U A30C, the self-cleavage is 0.591.

With G7A G47C, the self-cleavage was 0.185.

As for A2G A22C, the self-cleavage amounted to 0.129.

In the case of C19A A22G, the self-cleavage stood at 0.0827.

Consider A35U G39U, for which the self-cleavage is 0.134.

With A32U G39A, the self-cleavage worked out at 0.596.

Turning to C26G G38U, the self-cleavage is 0.0977.

With G13U U18C, the self-cleavage came out at 0.0744.

As to U6C C20A, the self-cleavage worked out at 0.0292.

Turning to C8G G13U, the self-cleavage was determined as 0.194.

For the variant C15G A22C, the self-cleavage amounted to 0.0849.

Regarding A30U G38C, the self-cleavage came to 0.88.

Take U6C C8U: the self-cleavage stood at 0.174.

On to U6C G47A, for which the self-cleavage came to 0.579.

For the variant A2G G44U, the self-cleavage amounted to 0.215.

For G24C C26G, the self-cleavage came to 0.0413.

With U31C G38A, the self-cleavage stood at 0.81.

A23U A34C: the self-cleavage was 0.0966.

A4U G17A: the self-cleavage stood at 0.0705.

Take A1U G13C: the self-cleavage is 0.0521.

In the case of G24C C46U, the self-cleavage came to 0.126.

In the case of G36A G41U, the self-cleavage came to 0.131.

Regarding A2G A40U, the self-cleavage turned out to be 0.107.

Regarding A2G A40G, the self-cleavage was 0.0967.

For the variant A2G A40C, the self-cleavage was 0.138.

For C9A A32C, the self-cleavage amounted to 0.665.

As for A30G A32G, the self-cleavage was found to be 1.02.

For the variant G13A A23G, the self-cleavage was 0.0799.

With A4U C8A, the self-cleavage was 0.0382.

Regarding C19A A23U, the self-cleavage was determined as 0.114.

For the variant C5A G16C, the self-cleavage was 0.098.

With A1U C3U, the self-cleavage is 0.0886.

On to C15A A32G, for which the self-cleavage amounted to 0.583.

In the case of U12G C14G, the self-cleavage came out at 0.124.

Take A2C G45U: the self-cleavage was 0.0774.

Consider G42A C46A, for which the self-cleavage was found to be 0.251.

Regarding A35C C46U, the self-cleavage is 0.879.

Regarding G38A G39C, the self-cleavage turned out to be 0.175.

U12A G38C: the self-cleavage was 1.11.

Regarding A22U G45A, the self-cleavage amounted to 0.678.

For A23U G48A, the self-cleavage is 0.389.

For the variant C8A C46A, the self-cleavage is 0.167.

Take G42U G44C: the self-cleavage came to 0.202.

Consider C14G A34U, for which the self-cleavage came out at 0.159.

For G13U G38U, the self-cleavage was determined as 0.303.

Take A11U C15U: the self-cleavage was determined as 1.

Take A2G G7C: the self-cleavage stood at 0.087.

Turning to U18A G42C, the self-cleavage came to 0.215.

As to C5G G45C, the self-cleavage came to 0.222.

With U37C, the self-cleavage came to 0.738.

On to G44U G48C, for which the self-cleavage was determined as 0.427.

For the variant A11U G16U, the self-cleavage came out at 0.544.

For the variant C21A G36A, the self-cleavage was determined as 0.0703.

G17A A40C: the self-cleavage is 0.105.

For the variant G7U G48A, the self-cleavage was 0.078.

Consider A23G G48A, for which the self-cleavage was 0.327.

With A23G G48C, the self-cleavage came out at 0.516.

In the case of A1C C3G, the self-cleavage stood at 0.161.

As to A10U A23C, the self-cleavage stood at 0.182.

Regarding C19U G42C, the self-cleavage was 0.221.

Turning to G16U G39A, the self-cleavage worked out at 0.595.

A11G U12G: the self-cleavage was found to be 0.743.

With C8U A40C, the self-cleavage turned out to be 0.202.

For the variant G17C G39A, the self-cleavage was 0.0934.

For the variant C5G G43U, the self-cleavage was found to be 0.136.

As to C21G U37G, the self-cleavage is 0.083.

Regarding C14U G44A, the self-cleavage amounted to 1.08.

As for C3U G17U, the self-cleavage is 0.0762.

As for G36A G42A, the self-cleavage was determined as 0.141.

Regarding G13U C20G, the self-cleavage amounted to 0.1.

As to C20U A32U, the self-cleavage was 0.887.

On to U31G G39C, for which the self-cleavage turned out to be 0.144.

On to A11G G45A, for which the self-cleavage came to 0.811.

As for A4U C25G, the self-cleavage was found to be 0.0782.

With G16A A40U, the self-cleavage turned out to be 0.125.

As to C14A G16A, the self-cleavage stood at 0.641.

Turning to A2G A33C, the self-cleavage is 0.503.

As for U6C U37A, the self-cleavage was found to be 0.131.

With A32G G43U, the self-cleavage amounted to 0.439.

With G24A G44A, the self-cleavage came out at 0.101.

On to C15U G29C, for which the self-cleavage was found to be 0.194.

For the variant U18G G28A, the self-cleavage turned out to be 0.0711.

Consider C19A A35U, for which the self-cleavage worked out at 0.29.

Turning to C20U A23C, the self-cleavage turned out to be 0.0767.

Take G43A G44C: the self-cleavage amounted to 0.465.

With A4U G39C, the self-cleavage was found to be 0.0848.

Consider A4U G39U, for which the self-cleavage is 0.0721.

Consider U31G G38U, for which the self-cleavage was found to be 0.778.

For the variant C46U G48A, the self-cleavage was 0.885.

As for A1G A11C, the self-cleavage stood at 0.349.

Regarding A4C C5G, the self-cleavage stood at 0.0446.

As to A33G G45C, the self-cleavage was 0.545.

Turning to G43U C46U, the self-cleavage turned out to be 0.426.

Take A34G G41U: the self-cleavage amounted to 0.131.

Turning to C15G C20A, the self-cleavage was found to be 0.0716.

On to U12G G38U, for which the self-cleavage was 0.76.

On to C25A G41C, for which the self-cleavage was 0.106.

For C19A G36C, the self-cleavage is 0.0909.

With G17A A22U, the self-cleavage came to 0.258.

As for U12A C21A, the self-cleavage was 0.152.

For C14G C25A, the self-cleavage is 0.0733.

As to G13A C25A, the self-cleavage stood at 0.0972.

G16A G45A: the self-cleavage was found to be 0.891.

Regarding G44U G47U, the self-cleavage amounted to 0.783.

As for C8U G36C, the self-cleavage is 0.106.

Turning to U6A G44U, the self-cleavage came out at 0.925.

For the variant G7C C20U, the self-cleavage was found to be 0.122.

As for G24U C25U, the self-cleavage was found to be 0.0725.

As to A33U G36A, the self-cleavage was 0.282.

With A23G C26U, the self-cleavage was 0.101.

With A1U A32C, the self-cleavage turned out to be 0.057.

C14G G43U: the self-cleavage came to 0.08.

For C20U C21U, the self-cleavage came out at 0.119.

On to C20G A23U, for which the self-cleavage amounted to 0.121.

As for C19A, the self-cleavage was found to be 0.384.

As to C19G, the self-cleavage was 0.485.

For the origin of these results see the RNAGym collection of RNA variant scans (doi:10.7554/elife.80360).
